In publication PMC12548415:

Columns and labels:
Test in all cases: BLI; virus immobilised on APS probe (Gator Prime), PBS as running buffer; three concentrations (serial dilutions) of RDTfR in PBST (PBS, 0.05% Tween-20) applied; global fit, 1:1 binding model
[1] = biological target: wild-type raccoon dog parvovirus strain RDPV/FLD/2010, capsid of VP2 (raccoon dog parvovirus, strain RDPV/FLD/2010)
[2] = biological target: wild-type raccoon dog parvovirus strain RDPV/CL/2016, capsid of VP2 (raccoon dog parvovirus, strain RDPV/CL/2016)
[3] = biological target: rRDPV-16 virus (rescued from the infectious cDNA clone pRDPV-16 of raccoon dog parvovirus strain RDPV/CL/2016), capsid of VP2 (raccoon dog parvovirus, strain RDPV/CL/2016)

Substance: raccoon dog transferrin receptor ectodomain (recombinant RDTfR, from residue 121, C-terminal 6x His)
- Kd [1]: 0.103 µM
- Kd [2]: 0.0811 µM
- Kd [3]: 0.0561 µM
- koff [3]: 0.00306 s⁻¹
- kon [3]: 54500 M⁻¹ s⁻¹
